Data published in patent US20220411475A1.

Legend:
[1] = biological target: PreS1-WHc VLP-1.5 (1-34) (Woodchuck hepatitis virus; Hepatitis B virus (ayw)); test: solid-phase ELISA, antigen on plate
[2] = biological target: PreS1-WHc VLP-1.9 (83-106-NH2/1-25-loop); test: solid-phase ELISA, antigen on plate
[3] = biological target: PreS1-WHc VLP-1.6 (15-40); test: solid-phase ELISA, antigen on plate
[4] = biological target: PreS1-WHc VLP-1.1+ (19-43) (Woodchuck hepatitis virus; Hepatitis B virus (ayw)); test: solid-phase ELISA, antigen on plate
[5] = biological target: recombinant (r) PreS1/PreS2 protein (Hepatitis B virus (ayw)) (UniProt P03138); test: solid-phase ELISA, antigen on plate
[6] = biological target: PreS1-WHc VLP-1.4 (15-31) (Woodchuck hepatitis virus; Hepatitis B virus (ayw)) (UniProt P0C6J2); test: solid-phase ELISA, antigen on plate
[7] = biological target: purified HBV virions (Hepatitis B virus); test: solid-phase ELISA, antigen on plate
[8] = biological target: PreS1 synthetic peptide p(1-36) (Hepatitis B virus (ayw)); test: solid-phase ELISA, antigen on plate
[9] = biological target: PreS1-WHc VLP-1.3+ (1-25) (Woodchuck hepatitis virus; Hepatitis B virus (ayw)); test: solid-phase ELISA, antigen on plate
[10] = biological target: PreS1 synthetic peptide p(18-25) (Hepatitis B virus (ayw)); test: solid-phase ELISA, antigen on plate
[11] = biological target: myristoylated rPreS1/PreS2 protein (Hepatitis B virus (ayw)) (UniProt P03138); test: solid-phase ELISA, antigen on plate
[12] = biological target: PreS1-WHc VLP-1.4+ (15-34) (Woodchuck hepatitis virus; Hepatitis B virus (ayw)); test: solid-phase ELISA, antigen on plate
[13] = biological target: combination of VLPs 1.6+1.9; test: solid-phase ELISA, antigen on plate
[14] = biological target: HDV particles coated with HBV envelope proteins (L/M/S HBsAg/ay) (Hepatitis B virus genotype D, subtype ayw) (UniProt P03138); test: cell-based or functional assay
[15] = biological target: PreS1-WHc VLP-1.1 (21-43) (Woodchuck hepatitis virus; Hepatitis B virus (ayw)); test: solid-phase ELISA, antigen on plate
[16] = biological target: PreS1 synthetic peptide p(21-42) (Hepatitis B virus (ayw)); test: solid-phase ELISA, antigen on plate

Substance PreS1-specific Mab 18/7 (antibody) has a Min binding conc. [1] of 0.3 ng/mL, a Min binding conc. [2] of 1.6 ng/mL and a Min binding conc. [3] of 0.3 ng/mL. It also gave a Min binding conc. [4] of 0.3 ng/mL, a Min binding conc. [5] of 0.3 ng/mL and a Min binding conc. [6] of 0.3 ng/mL. For the same substance, the Min binding conc. [7] was 2 ng/mL, the Min binding conc. [8] was 1.6 ng/mL and the Min binding conc. [9] was 1.6 ng/mL. The Min binding conc. [10] was 8 ng/mL, the Min binding conc. [11] was 0.3 ng/mL and the Min binding conc. [12] was 8 ng/mL. The Min binding conc. [13] was 0.3 ng/mL, the higher stringency neutralization assay, complete neutralization [14] was > 5 µg/mL and the neutralization of HDV-HBV infection of HepaRG cells (intracellular HDV RNA) [14] was < 0.05 µg/mL.

Work on PreS1-specific Mab KR-127 (antibody) yielded a Min binding conc. [15] of 1.6 ng/mL, a Min binding conc. [16] of 1.6 ng/mL and a Min binding conc. [3] of 1.6 ng/mL. For the same substance, the Min binding conc. [4] was 1000 ng/mL, the Min binding conc. [5] was 1.6 ng/mL and the Min binding conc. [7] was 75 ng/mL. The Min binding conc. [8] was 1.6 ng/mL, the Min binding conc. [11] was 1.6 ng/mL and the Min binding conc. [12] was 8 ng/mL. For the same substance, the Min binding conc. [13] was 1.6 ng/mL.
